Square brackets hold non-standard residues; d marks the D form. Ends that are not written are not given here. 2Thi = N[C@@H](Cc1cccs1)C(=O)O; Nva = CCC[C@H](N)C(=O)O
Target: T1, BACE (Homo sapiens, UniProt P56817)
Experiment: Evaluation of peptides as BACE substrates (percent cleavage by LC-MS)
Type: biochemical
Settings: 10 hr incubation with BACE enzyme, determined by LC-MS
Description: In order to evaluate a range of peptide amino acid sequences as BACE substrates for the probes, the peptides shown below in Table II were incubated with BACE enzyme under conditions suitable for enzyme activity and the percent cleavage after 10 hr was determined by LC-MS. Thus, in addition to SEQ ID NO: 1 present in β-MAP, the peptide sequences corresponding to SEQ ID NO's: 2-6 and 10-11 can also be useful as BACE substrates in the BACE probes of the present disclosure. For example, the specific BACE substrate sequence can be chosen based on the level of cleavage desired for a particular use for which the probe will be utilized. In can be envisioned that a higher or a lower amount of BACE probe cleavage could be desirable based on the different uses of the BACE probes.

T1 sequence (P56817 46-501): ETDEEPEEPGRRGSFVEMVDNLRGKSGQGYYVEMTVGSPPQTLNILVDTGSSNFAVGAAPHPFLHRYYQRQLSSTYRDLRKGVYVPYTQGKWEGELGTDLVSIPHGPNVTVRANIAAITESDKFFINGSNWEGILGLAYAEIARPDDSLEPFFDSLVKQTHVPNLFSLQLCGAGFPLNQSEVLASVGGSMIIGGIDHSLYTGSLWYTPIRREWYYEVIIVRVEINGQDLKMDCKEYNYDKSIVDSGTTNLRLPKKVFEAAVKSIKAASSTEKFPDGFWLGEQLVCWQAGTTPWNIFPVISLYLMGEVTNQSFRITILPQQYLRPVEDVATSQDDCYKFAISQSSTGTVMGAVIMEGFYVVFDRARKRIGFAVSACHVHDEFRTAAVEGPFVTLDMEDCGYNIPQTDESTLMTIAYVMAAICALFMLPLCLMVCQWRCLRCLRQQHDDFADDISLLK

Point of comparison: “EIDL-MVLD (EIDLMVLD) [BACE substrate polypeptide]”, “Percent Cleavage after 10 hr Incubation with BACE” value 20%. Against it:
- APSL-DAHF (APSLDAHF) [peptide evaluated as BACE substrate] — lower, 0.5%
- DETL-DAHF (DETLDAHF) [peptide evaluated as BACE substrate] — lower, 1%
- EI(Thi)(Thi)-(Nva)AHF (EI[2Thi][2Thi][Nva]AHF) [BACE substrate polypeptide with unnatural amino acids thienyl and norvaline] — higher, 25%
- EIDL-SSHD (EIDLSSHD) [BACE substrate polypeptide] — lower, 5%
- EVNF-EVEF (EVNFEVEF) [BACE substrate polypeptide] — higher, 85%
- EVNL-DAEF (EVNLDAEF) [BACE substrate polypeptide] — higher, 50%
- EVNL-DAHF (EVNLDAHF) [BACE substrate polypeptide] — higher, 50%
- EVNL-SSHD (EVNLSSHD) [BACE substrate polypeptide] — lower, 3.5%

In the case of “ASNL-DAHF (ASNLDAHF) [peptide evaluated as BACE substrate]”, the “Percent Cleavage after 10 hr Incubation with BACE” value is reported as “Not Detected”.

Target: T1, BACE
Experiment: not given
Settings: compared to wild type; cited from earlier work

For “Swedish mutant APP: amyloid precursor protein with the Swedish mutation”, the “increase in Kcat/KM” value is given as 60 fold.

Reference: patent US8859223B1, “Compositions and methods for imaging beta-secretase activity in living cells and organisms” (Duke University, priority 2012, dated 2014)
